Test results as given in patent publication US20260022175A1 (Chugai, published 2026).

Tests used:
[1] = biological target: hFcγRIIIaV on hFcγRIIIaV-expressing Jurkat cells (human, UniProt P08637 17-254); assay: cell-based or functional assay
[2] = biological target: T1, human FcγRIa extracellular domain (human, UniProt P12314 16-292); assay: SPR Biacore 8K+; KD of G1d divided by KD of this antibody;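 also: antibodies captured on an anti-Fab-kappa streptavidin chip, soluble FcγR ectodomains flowed over, KD by steady-state fit for FcγRIIb and Langmuir kinetic model for the other receptors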
T1 construct: extracellular domain; also called hFcγR Ia; hFcγRIa

[3] = biological target: T2, human FcγRIIa H extracellular domain (human, UniProt P12318 34-217); assay: as above
T2 construct: extracellular domain; also called hFcγR IIa H
T2 sequence (looked up): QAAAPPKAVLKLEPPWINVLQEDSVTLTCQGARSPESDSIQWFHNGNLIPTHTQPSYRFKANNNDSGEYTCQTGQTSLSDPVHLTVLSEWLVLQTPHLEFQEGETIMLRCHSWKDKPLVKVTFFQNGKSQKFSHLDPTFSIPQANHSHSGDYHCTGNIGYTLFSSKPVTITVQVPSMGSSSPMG

[4] = biological target: T3, human FcγRIIa R extracellular domain (human, UniProt P12318 34-217); assay: as above
T3 construct: extracellular domain; also called hFcγR IIa R
T3 sequence (looked up): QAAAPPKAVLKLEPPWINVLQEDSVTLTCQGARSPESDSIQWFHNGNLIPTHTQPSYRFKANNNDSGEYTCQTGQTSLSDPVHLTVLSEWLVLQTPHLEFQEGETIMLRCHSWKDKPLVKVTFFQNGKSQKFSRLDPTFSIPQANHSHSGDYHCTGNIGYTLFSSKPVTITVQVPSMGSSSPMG

[5] = biological target: T4, human FcγRIIb extracellular domain (human, UniProt P31994 43-217); assay: as above
T4 construct: extracellular domain; also called hFcγR IIb
T4 sequence (looked up): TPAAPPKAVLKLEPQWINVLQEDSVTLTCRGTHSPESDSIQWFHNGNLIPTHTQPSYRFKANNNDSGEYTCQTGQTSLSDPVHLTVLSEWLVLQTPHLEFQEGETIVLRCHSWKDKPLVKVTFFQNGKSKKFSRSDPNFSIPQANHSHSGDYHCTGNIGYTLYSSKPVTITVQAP

[6] = biological target: T5, human FcγRIIIa F extracellular domain (human, UniProt P08637 17-208); assay: as above
T5 construct: extracellular domain; also called hFcγR IIIa F

[7] = biological target: T6, human FcγRIIIa V extracellular domain (human, UniProt P08637 17-208); assay: as above
T6 construct: extracellular domain; also called hFcγR IIIa V

[8] = biological target: T2, human FcγRIIa H extracellular domain; assay: SPR Biacore 8K+; KD for FcγRIIb divided by KD for this FcγR;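 also: antibodies captured on an anti-human Fab kappa SA chip with soluble human FcγR ectodomains flowed over, FcγRIIb KD from steady-state fit, other FcγR KD from Langmuir model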
[9] = biological target: T3, human FcγRIIa R extracellular domain; assay: as above
[10] = biological target: T5, human FcγRIIIa F extracellular domain; assay: as above
[11] = biological target: T6, human FcγRIIIa V extracellular domain; assay: as above
[12] = biological target: T1, human FcγRIa extracellular domain; assay: SPR Biacore 8K+, antibody captured, FcγR as analyte, 1:1 Langmuir model;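 also: antibodies captured on a streptavidin chip through a biotinylated anti-human Fab kappa reagent, with FcγR extracellular domains injected in pH 7.4 phosphate buffer at 25 °C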
[13] = biological target: T2, human FcγRIIa H extracellular domain; assay: as above
[14] = biological target: T3, human FcγRIIa R extracellular domain; assay: as above
[15] = biological target: T5, human FcγRIIIa F extracellular domain; assay: as above
[16] = biological target: T6, human FcγRIIIa V extracellular domain; assay: as above
[17] = biological target: T4, human FcγRIIb extracellular domain; assay: SPR Biacore 8K+, antibody captured, FcγR as analyte, steady state affinity model
[18] = biological target: T7, human C1q protein (Calbiochem) (human, UniProt P02745 23-245; P02746 28-253; P02747 29-245); assay: ELISA: antibody coated on the plate at the varied concentration, hC1q 3 µg/mL added, detected with HRP-conjugated anti-hC1q antibody, O.D (450-690nm)
T7 construct: bought; also called hC1q

[19] = biological target: T8, hCTLA4-His-BAP (human CTLA4 extracellular region with C-terminal His-tag and BAP-tag) (human, biotin on the BAP-tag); assay: SPR 37C, ATP 100 µM; ATP 100 µM
T8 construct: also called hCTLA4-His-Biotin

[20] = biological target: T8, hCTLA4-His-BAP (human CTLA4 …); assay: SPR 37C, hCTLA4 1000 nM, no ATP; no ATP; binding amount at 1000 nM hCTLA4
[21] = biological target: T8, hCTLA4-His-BAP (human CTLA4 …); assay: SPR 37C, hCTLA4 1000 nM, ATP 1 µM; ATP 1 µM; binding amount at 1000 nM hCTLA4
[22] = biological target: T8, hCTLA4-His-BAP (human CTLA4 …); assay: SPR 37C, hCTLA4 1000 nM, ATP 10 µM; ATP 10 µM; binding amount at 1000 nM hCTLA4
[23] = biological target: T8, hCTLA4-His-BAP (human CTLA4 …); assay: SPR 37C, hCTLA4 1000 nM, ATP 100 µM; ATP 100 µM; binding amount at 1000 nM hCTLA4
human CTLA4 [24] = biological target: T9, human CTLA4 (human); assay: SPR Biacore T200, 37C, antibody captured, ATP 1 uM
T9 construct: also called hCTLA4; hCTLA4-His-BAP

human CTLA4 [25] = biological target: T9, human CTLA4; assay: SPR Biacore T200, 37C, antibody captured, ATP 1 uM; remark: listed apart in the source
[26] = biological target: T10, cynomolgus monkey CTLA4 (CyCTLA4-His-BAP) (cynomolgus monkey); assay: SPR Biacore T200, 37C, antibody captured, ATP 1 uM
human CTLA4 [27] = biological target: T9, human CTLA4; assay: SPR Biacore T200, 37C, antibody captured, ATP 10 uM
human CTLA4 [28] = biological target: T9, human CTLA4; assay: SPR Biacore T200, 37C, antibody captured, ADP 10 uM;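 also: antibodies held on a Protein G CM3 chip, human CTLA4 as analyte in ACES pH 7.4 buffer, rates from a global 1:1 Langmuir fit, Kd from rates or steady state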
human CTLA4 [29] = biological target: T9, human CTLA4; assay: SPR Biacore T200, 37C, antibody captured, AMP 10 uM
human CTLA4 [30] = biological target: T9, human CTLA4; assay: SPR Biacore T200, 37C, antibody captured, ATP 10 uM; remark: listed apart in the source
human CTLA4 [31] = biological target: T9, human CTLA4; assay: as above; remark: listed apart in the source
[32] = biological target: T10, cynomolgus monkey CTLA4 …; assay: as above
human CTLA4 [33] = biological target: T9, human CTLA4; assay: SPR Biacore T200, 37C, antibody captured, ATP 100 uM
[34] = biological target: T10, cynomolgus monkey CTLA4 …; assay: as above
human CTLA4 [35] = biological target: T9, human CTLA4; assay: SPR Biacore T200, 37C, antibody captured, no ATP, steady state model

T5 sequence (P08637 17-208): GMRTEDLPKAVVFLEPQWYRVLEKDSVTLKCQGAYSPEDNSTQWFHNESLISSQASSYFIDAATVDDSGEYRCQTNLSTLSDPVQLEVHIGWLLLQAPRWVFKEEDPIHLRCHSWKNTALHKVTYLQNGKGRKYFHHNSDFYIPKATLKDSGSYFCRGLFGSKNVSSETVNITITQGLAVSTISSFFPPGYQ
T10 sequence (chain, as listed by the source limits assumed): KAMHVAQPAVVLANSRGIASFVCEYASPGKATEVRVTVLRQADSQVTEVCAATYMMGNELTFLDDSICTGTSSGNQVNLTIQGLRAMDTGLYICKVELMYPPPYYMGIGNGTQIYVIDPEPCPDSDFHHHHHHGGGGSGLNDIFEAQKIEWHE
T6 sequence (P08637 17-208 F176V limits assumed): as the sequence (P08637 17-208) above, with F160V counted along it
T9 sequence (chain, as listed by the source limits assumed): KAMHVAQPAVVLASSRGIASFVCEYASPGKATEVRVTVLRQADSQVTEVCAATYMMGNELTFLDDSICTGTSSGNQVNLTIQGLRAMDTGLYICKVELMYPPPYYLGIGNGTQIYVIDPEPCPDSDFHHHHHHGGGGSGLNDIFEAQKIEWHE
T7 sequence (P02745 23-245 limits assumed, chain 1 of 3): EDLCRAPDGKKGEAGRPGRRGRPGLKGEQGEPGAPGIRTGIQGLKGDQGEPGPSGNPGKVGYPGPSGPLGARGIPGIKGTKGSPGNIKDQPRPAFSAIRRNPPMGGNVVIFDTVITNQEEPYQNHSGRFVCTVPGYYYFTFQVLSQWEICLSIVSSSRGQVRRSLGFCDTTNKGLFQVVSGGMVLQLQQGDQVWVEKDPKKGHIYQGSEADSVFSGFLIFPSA
T7 sequence (P02746 28-253 limits assumed, chain 2 of 3): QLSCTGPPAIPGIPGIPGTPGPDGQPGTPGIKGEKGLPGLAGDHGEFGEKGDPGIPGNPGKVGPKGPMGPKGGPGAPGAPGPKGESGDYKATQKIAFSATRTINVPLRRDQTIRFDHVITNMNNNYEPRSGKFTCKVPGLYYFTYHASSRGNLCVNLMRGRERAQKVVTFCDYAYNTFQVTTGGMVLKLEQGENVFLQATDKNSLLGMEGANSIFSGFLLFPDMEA
T7 sequence (P02747 29-245 limits assumed, chain 3 of 3): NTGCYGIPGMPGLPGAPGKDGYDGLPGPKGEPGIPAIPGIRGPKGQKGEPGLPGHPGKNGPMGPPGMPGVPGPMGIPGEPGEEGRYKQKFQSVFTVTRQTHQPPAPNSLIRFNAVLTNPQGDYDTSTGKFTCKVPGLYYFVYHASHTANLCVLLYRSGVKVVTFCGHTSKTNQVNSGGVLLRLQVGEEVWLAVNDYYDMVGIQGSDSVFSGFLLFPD
T1 sequence (P12314 16-292): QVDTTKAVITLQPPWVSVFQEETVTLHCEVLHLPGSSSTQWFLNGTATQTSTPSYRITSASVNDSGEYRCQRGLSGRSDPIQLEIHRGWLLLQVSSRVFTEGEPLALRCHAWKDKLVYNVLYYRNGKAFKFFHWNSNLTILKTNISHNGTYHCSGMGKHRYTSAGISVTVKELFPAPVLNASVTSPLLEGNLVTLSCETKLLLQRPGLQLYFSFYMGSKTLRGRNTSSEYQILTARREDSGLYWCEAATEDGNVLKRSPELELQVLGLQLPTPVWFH
Sequence of hFcγRIIIaV on hFcγRIIIaV-expressing Jurkat cells (P08637 17-254, form in doubt): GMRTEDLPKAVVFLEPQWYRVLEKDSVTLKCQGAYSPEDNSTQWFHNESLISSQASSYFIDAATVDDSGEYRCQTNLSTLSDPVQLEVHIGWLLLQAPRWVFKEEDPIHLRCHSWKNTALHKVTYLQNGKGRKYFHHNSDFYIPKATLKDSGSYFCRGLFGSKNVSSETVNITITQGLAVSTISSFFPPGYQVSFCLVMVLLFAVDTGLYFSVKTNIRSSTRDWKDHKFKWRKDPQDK

B1: H240-G1d/L73-k0 (antibody, human IgG1, kappa)
heavy: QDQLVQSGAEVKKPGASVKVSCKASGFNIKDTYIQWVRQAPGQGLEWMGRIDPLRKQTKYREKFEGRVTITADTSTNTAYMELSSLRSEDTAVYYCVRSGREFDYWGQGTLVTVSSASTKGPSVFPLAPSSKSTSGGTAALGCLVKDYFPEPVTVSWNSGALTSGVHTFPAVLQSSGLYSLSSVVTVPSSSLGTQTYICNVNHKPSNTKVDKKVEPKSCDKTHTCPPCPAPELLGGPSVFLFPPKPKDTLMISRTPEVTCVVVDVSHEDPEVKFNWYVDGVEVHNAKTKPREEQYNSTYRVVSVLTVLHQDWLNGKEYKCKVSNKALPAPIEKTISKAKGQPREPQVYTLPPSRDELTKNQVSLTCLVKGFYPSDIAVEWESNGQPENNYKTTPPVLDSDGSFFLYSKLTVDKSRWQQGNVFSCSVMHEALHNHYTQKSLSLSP
light: DIQMTQSPSSLSASVGDRVTITCRASQDIHKYIAWYQQKPGQAPRLLIQYTSTLQPGVPSRFSGSGSGTDYTFTISSLQPEDIATYYCLQYEQLRTFGGGTKVEIKRTVAAPSVFIFPPSDEQLKSGTASVVCLLNNFYPREAKVQWKVDNALQSGNSQESVTEQDSKDSTYSLSSTLTLSKADYEKHKVYACEVTHQGLSSPVTKSFNRGEC
notes: Anti-human Epiregulin antibody with the human IgG1 constant region G1d (C-terminal Gly and Lys deleted); also called EGL-G1d
- EC50 value (hFcγRIIIaV ADCC Reporter Bioassay, Hepa1-6/hEREG target cells) [1]: 0.0463 µg/mL
- Relative value to KD between G1d and hFcgRs [2]: 1
- Relative value to KD between G1d and hFcgRs [3]: 1
- Relative value to KD between G1d and hFcgRs [4]: 1
- Relative value to KD between G1d and hFcgRs [5]: 1
- Relative value to KD between G1d and hFcgRs [6]: 1
- Relative value to KD between G1d and hFcgRs [7]: 1
- A/I ratio (KD for FcγRIIb divided by KD for each FcγR) [8]: 8.9
- A/I ratio (KD for FcγRIIb divided by KD for each FcγR) [9]: 6.1
- A/I ratio (KD for FcγRIIb divided by KD for each FcγR) [10]: 3.4
- A/I ratio (KD for FcγRIIb divided by KD for each FcγR) [11]: 28.1
- Kd [12]: 0.0901 nM
- Kd [13]: 1120 nM
- Kd [14]: 1660 nM
- Kd [15]: 2960 nM
- Kd [16]: 358 nM
- Kd [17]: 10100 nM
- binding result [18]: binds

B2: EGL-G4d (antibody, human IgG4 S228P, kappa)
heavy: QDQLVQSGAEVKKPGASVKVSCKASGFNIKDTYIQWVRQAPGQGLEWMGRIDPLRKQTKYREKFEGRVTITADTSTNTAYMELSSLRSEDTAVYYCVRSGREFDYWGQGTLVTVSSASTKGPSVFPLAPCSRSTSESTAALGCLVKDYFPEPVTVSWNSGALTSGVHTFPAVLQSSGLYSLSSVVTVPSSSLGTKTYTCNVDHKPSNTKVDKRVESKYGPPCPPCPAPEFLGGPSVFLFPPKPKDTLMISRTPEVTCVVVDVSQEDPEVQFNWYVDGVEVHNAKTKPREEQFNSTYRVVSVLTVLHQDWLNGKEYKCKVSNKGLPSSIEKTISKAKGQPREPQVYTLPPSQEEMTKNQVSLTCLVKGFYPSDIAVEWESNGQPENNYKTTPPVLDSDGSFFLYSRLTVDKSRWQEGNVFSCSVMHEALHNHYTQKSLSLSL
light: DIQMTQSPSSLSASVGDRVTITCRASQDIHKYIAWYQQKPGQAPRLLIQYTSTLQPGVPSRFSGSGSGTDYTFTISSLQPEDIATYYCLQYEQLRTFGGGTKVEIKRTVAAPSVFIFPPSDEQLKSGTASVVCLLNNFYPREAKVQWKVDNALQSGNSQESVTEQDSKDSTYSLSSTLTLSKADYEKHKVYACEVTHQGLSSPVTKSFNRGEC
- binding result [18]: no binding (tested: 30 µg/mL)

B3: 04H1077-G1m/04L1034-lam1 (antibody, human IgG1, lambda, V domains shown)
VH: EVQLVESGGDLVKPGGGLRLSCAASGFTFSSRTMNWVRQAPGKGLEWVSSISTRSGYIYYAESVKGRFTISRDNAKNSLYLQMNSLRAEDTAVYYCARYGKREDMLWVFDYWGQGTLVTVSS
VL: QSALTQPPSASGSPGQTVTISCDGPSTDVGDYNWVSWYQQHPGKAPKLMIYFTSKKPSGVPDRFSGSKSGNTASLTVSGLQAEDEADYFCSTYAAPLGPMFGGGTKLTVLG
- Kd [19]: 320 nM
- Binding to Human CTLA4 [20]: 0.004 per unit amount of antibody
- Binding to Human CTLA4 [21]: 0.007 per unit amount of antibody
- Binding to Human CTLA4 [22]: 0.041 per unit amount of antibody
- Binding to Human CTLA4 [23]: 0.114 per unit amount of antibody

B4: 04H1656-G1m/04L1612-lam1 (antibody, human IgG1, lambda)
heavy: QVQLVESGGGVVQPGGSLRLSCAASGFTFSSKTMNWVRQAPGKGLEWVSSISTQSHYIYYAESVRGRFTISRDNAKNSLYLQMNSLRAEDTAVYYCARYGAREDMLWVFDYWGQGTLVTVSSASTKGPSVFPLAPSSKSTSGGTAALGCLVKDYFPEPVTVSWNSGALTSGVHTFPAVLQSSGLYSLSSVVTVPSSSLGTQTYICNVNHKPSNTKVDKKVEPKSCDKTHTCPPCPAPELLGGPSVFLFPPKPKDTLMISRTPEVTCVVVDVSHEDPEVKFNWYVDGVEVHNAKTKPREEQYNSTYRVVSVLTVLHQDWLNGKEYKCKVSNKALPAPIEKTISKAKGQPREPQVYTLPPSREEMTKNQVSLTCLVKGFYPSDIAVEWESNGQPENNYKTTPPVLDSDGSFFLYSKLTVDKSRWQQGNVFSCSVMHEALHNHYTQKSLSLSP
light: QSALTQPPSASGSPGQSVTISCEGPSTGVGDYTYVHWYQQHPGKAPKLMIYFTSKKPSGVPDRFSGSKSGNTASLTVSGLQAEDEADYYCQTYAAPLGPMFGGGTKLTVLGQPKAAPSVTLFPPSSEELQANKATLVCLISDFYPGAVTVAWKADSSPVKAGVETTTPSKQSNNKYAASSYLSLTPEQWKSHRSYSCQVTHEGSTVEKTVAPTECS
- Kd (human CTLA4 [24]): 160 nM
- Kd (human CTLA4 [25]): 95 nM
- Kd [26]: 160 nM
- Kd (human CTLA4 [27]): 32 nM
- Kd (human CTLA4 [28]): 42 nM
- koff (human CTLA4 [28]): 0.0064 s⁻¹
- kon (human CTLA4 [28]): 150000 M⁻¹ s⁻¹
- Kd (human CTLA4 [29]): 130 nM
- koff (human CTLA4 [29]): 0.02 s⁻¹
- kon (human CTLA4 [29]): 150000 M⁻¹ s⁻¹
- Kd (human CTLA4 [30]): 26 nM
- koff (human CTLA4 [30]): 0.0029 s⁻¹
- kon (human CTLA4 [30]): 110000 M⁻¹ s⁻¹
- Kd (human CTLA4 [31]): 25 nM
- Kd [32]: 41 nM
- Kd (human CTLA4 [33]): 7.8 nM
- Kd [34]: 16 nM
- Kd (human CTLA4 [35]): 7600 nM
